Assay results reported in the supplement of paper PMC5998384.

Experiments:
HeLa Kyoto [1] = experiment: solubility in G1/S (NP-40 vs SDS abundance) (log2 ratio); higher = more soluble; conditions: cell cycle stage: G1/S
HeLa Kyoto [2] = experiment: melting temperature (median over replicates), in situ; higher = more thermally stable
HeLa Kyoto [3] = experiment: solubility change mitosis vs G1/S (difference of NP-40 vs SDS log2 ratios) (log2 ratio difference); higher = more soluble in mitosis
HeLa Kyoto [4] = experiment: thermal stability score vs G1/S (z-score of summed log2 fold changes over temperatures); higher = more thermally stable than in G1/S
[5] = cell cycle stage: early G1 (4.5 h after nocodazole release)
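Wherever melting temperature (median over replicates), in situ is given: HeLa Kyoto cells synchronized by double thymidine or nocodazole block, proteins quantified by TMT10plex mass spectrometry, three independent biological replicates.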
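Wherever solubility change mitosis vs G1/S (difference of NP-40 vs SDS log2 ratios) is given: synchronized HeLa Kyoto cells (double thymidine block for G1/S, nocodazole release for mitosis), protein amounts in NP-40 versus SDS lysates quantified by mass spectrometry, three biological replicates.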
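Wherever solubility in G1/S (NP-40 vs SDS abundance) is given: HeLa Kyoto cells arrested at G1/S by double thymidine block, proteins quantified by TMT10plex mass spectrometry in mild NP-40 versus SDS extracts, three biological replicates.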
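Wherever thermal stability score vs G1/S (z-score of summed log2 fold changes over temperatures) is given: synchronized HeLa Kyoto cells, proteins quantified by TMT10plex mass spectrometry, three biological replicates, mitosis taken 0.5 h after nocodazole release, G1/S directly after double thymidine block.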

Row | Sequence | solubility in G1/S (log2) (HeLa Kyoto [1]) | melting temperature (HeLa Kyoto [2]; cell cycle stage: G1/S) | melting temperature (HeLa Kyoto [2]; cell cycle stage: mitosis) | solubility change mitosis (log2) (HeLa Kyoto [3]) | thermal stability score (HeLa Kyoto [4]; [5]) | thermal stability score (HeLa Kyoto [4]; cell cycle stage: mitosis)
1 | MNKLRQSFRRKKDVYVPEASRPHQWQTDEEGVRTGKCSFPVKYLGHVEVDESRGMHICEDAVKRLKAERKFFKGFFGKTGKKAVKAVLWVSADGLRVVDEKTKDLIVDQTIEKVSFCAPDRNFDRAFSYICRDGTTRRWICHCFMAVKDTGERLSHAVGCAFAACLERKQKREKECGVTATFDASRTTFTREGSFRVTTATEQAEREEIMKQMQDAKKAETDKIVVGSSVAPGNTAPSPSSPTSPTSDATTSLEMNNPHAIPRRHAPIEQLARQGSFRGFPALSQKMSPFKRQLSLRINELPSTMQRKTDFPIKNAVPEVEGEAESISSLCSQITNAFSTPEDPFSSAPMTKPVTVVAPQSPTFQANGTDSAFHVLAKPAHTALAPVAMPVRETNPWAHAPDAANKEIAATCSGTEWGQSSGAASPGLFQAGHRRTPSEADRWLEEVSKSVRAQQPQASAAPLQPVLQPPPPTAISQPASPFQGNAFLTSQPVPVGVVPALQPAFVPAQSYPVANGMPYPAPNVPVVGITPSQMVANVFGTAGHPQAAHPHQSPSLVRQQTFPHYEASSATTSPFFKPPAQHLNGSAAFNGVDDGRLASADRHTEVPTGTCPVDPFEAQWAALENKSKQRTNPSPTNPFSSDLQKTFEIEL [NUMB] | -0.0586 | 51.9 °C | 51.4 °C | -0.132 | 0.0697 | 0.793
2 | MNLFNLDRFRFEKRNKIEEAPEATPQPSQPGPSSPISLSAEEENAEGEVSRANTPDSDITEKTEDSSVPETPDNERKASISYFKNQRGIQYIDLSSDSEDVVSPNCSNTVQEKTFNKDTVIIVSEPSEDEESQGLPTMARRNDDISELEDLSELEDLKDAKLQTLKELFPQRSDNDLLKLIESTSTMDGAIAAALLMFGDAGGGPRKRKLSSSSEPYEEDEFNDDQSIKKTRLDHGEESNESAESSSNWEKQESIVLKLQKEFPNFDKQELREVLKEHEWMYTEALESLKVFAEDQDMQYVSQSEVPNGKEVSSRSQNYPKNATKTKLKQKFSMKAQNGFNKKRKKNVFNPKRVVEDSEYDSGSDVGSSLDEDYSSGEEVMEDGYKGKILHFLQDASIGELTLIPQCSQKKAQKITELRPFNSWEALFTKMSKTNGLSEDLIWHCKTLIQERDVVIRLMNKCEDISNKLTKQVTMLTGNGGGWNIEQPSILNQSLSLKPYQKVGLNWLALVHKHGLNGILADEMGLGKTIQAIAFLAYLYQEGNNGPHLIVVPASTIDNWLREVNLWCPTLKVLCYYGSQEERKQIRFNIHSRYEDYNVIVTTYNCAISSSDDRSLFRRLKLNYAIFDEGHMLKNMGSIRYQHLMTINANNRLLLTGTPVQNNLLELMSLLNFVMPHMFSSSTSEIRRMFSSKTKSADEQSIYEKERIAHAKQIIKPFILRRVKEEVLKQLPPKKDRIELCAMSEKQEQLYLGLFNRLKKSINNLEKNTEMCNVMMQLRKMANHPLLHRQYYTAEKLKEMSQLMLKEPTHCEANPDLIFEDMEVMTDFELHVLCKQYRHINNFQLDMDLILDSGKFRVLGCILSELKQKGDRVVLFSQFTMMLDILEVLLKHHQHRYLRLDGKTQISERIHLIDEFNTDMDIFVFLLSTKAGGLGINLTSANVVILHDIDCNPYNDKQAEDRCHRVGQTKEVLVIKLISQGTIEESMLKINQQKLKLEQDMTTVDEGDEGSMPADIATLLKTSMGL [SMARCAD1] | -0.1 | 48.4 °C | 49.7 °C | -0.124 | 2.18 | 3.89
3 | MNLLPKSSREFGSVDYWEKFFQQRGKKAFEWYGTYLELCGVLHKYIKPREKVLVIGCGNSELSEQLYDVGYRDIVNIDISEVVIKQMKECNATRRPQMSFLKMDMTQMEFPDASFQVVLDKGTLDAVLTDEEEKTLQQVDRMLAEVGRVLQVGGRYLCISLAQAHILKKAVGHFSREGWMVRVHQVANSQDQVLEAEPQFSLPVFAFIMTKFRPVPGSALQIFELCAQEQRKPVRLESAERLAEAVQERQQYAWLCSQLRRKARLGSVSLDLCDGDTGEPRYTLHVVDSPTVKPSRDNHFAIFIIPQGRETEWLFGMDEGRKQLAASAGFRRLITVALHRGQQYESMDHIQAELSARVMELAPAGMPTQQQVPFLSVGGDIGVRTVQHQDCSPLSGDYVIEDVQGDDKRYFRRLIFLSNRNVVQSEARLLKDVSHKAQKKRKKDRKKQRPADAEDLPAAPGQSIDKSYLCCEHHKAMIAGLALLRNPELLLEIPLALLVVGLGGGSLPLFVHDHFPKSCIDAVEIDPSMLEVATQWFGFSQSDRMKVHIADGLDYIASLAGGGEARPCYDVIMFDVDSKDPTLGMSCPPPAFVEQSFLQKVKSILTPEGVFILNLVCRDLGLKDSVLAGLKAVFPLLYVRRIEGEVNEILFCQLHPEQKLATPELLETAQALERTLRKPGRGWDDTYVLSDMLKTVKIV [METTL13] | -0.167 | 49.3 °C | 48.9 °C | -0.0232 | 0.527 | 1.18
4 | MNMTQARVLVAAVVGLVAVLLYASIHKIEEGHLAVYYRGGALLTSPSGPGYHIMLPFITTFRSVQTTLQTDEVKNVPCGTSGGVMIYIDRIEVVNMLAPYAVFDIVRNYTADYDKTLIFNKIHHELNQFCSAHTLQEVYIELFDQIDENLKQALQKDLNLMAPGLTIQAVRVTKPKIPEAIRRNFELMEAEKTKLLIAAQKQKVVEKEAETERKKAVIEAEKIAQVAKIRFQQKVMEKETEKRISEIEDAAFLAREKAKADAEYYAAHKYATSNKHKLTPEYLELKKYQAIASNSKIYFGSNIPNMFVDSSCALKYSDIRTGRESSLPSKEALEPSGENVIQNKESTG [ERLIN1] | 0.24 | 52.7 °C | 53.1 °C | -0.0762 | 1.82 | 4.38
5 | MNNHVSSKPSTMKLKHTINPILLYFIHFLISLYTILTYIPFYFFSESRQEKSNRIKAKPVNSKPDSAYRSVNSLDGLASVLYPGCDTLDKVFTYAKNKFKNKRLLGTREVLNEEDEVQPNGKIFKKVILGQYNWLSYEDVFVRAFNFGNGLQMLGQKPKTNIAIFCETRAEWMIAAQACFMYNFQLVTLYATLGGPAIVHALNETEVTNIITSKELLQTKLKDIVSLVPRLRHIITVDGKPPTWSEFPKGIIVHTMAAVEALGAKASMENQPHSKPLPSDIAVIMYTSGSTGLPKGVMISHSNIIAGITGMAERIPELGEEDVYIGYLPLAHVLELSAELVCLSHGCRIGYSSPQTLADQSSKIKKGSKGDTSMLKPTLMAAVPEIMDRIYKNVMNKVSEMSSFQRNLFILAYNYKMEQISKGRNTPLCDSFVFRKVRSLLGGNIRLLLCGGAPLSATTQRFMNICFCCPVGQGYGLTESAGAGTISEVWDYNTGRVGAPLVCCEIKLKNWEEGGYFNTDKPHPRGEILIGGQSVTMGYYKNEAKTKADFFEDENGQRWLCTGDIGEFEPDGCLKIIDRKKDLVKLQAGEYVSLGKVEAALKNLPLVDNICAYANSYHSYVIGFVVPNQKELTELARKKGLKGTWEELCNSCEMENEVLKVLSEAAISASLEKFEIPVKIRLSPEPWTPETGLVTDAFKLKRKELKTHYQADIERMYGRK [ACSL3] | -0.101 | 50.7 °C | 51.2 °C | -0.129 | 1.86 | 3.88
6 | MNNLSFSELCCLFCCPPCPGKIASKLAFLPPDPTYTLMCDESGSRWTLHLSERADWQYSSREKDAIECFMTRTSKGNRIACMFVRCSPNAKYTLLFSHGNAVDLGQMSSFYIGLGSRINCNIFSYDYSGYGASSGKPTEKNLYADIEAAWLALRTRYGIRPENVIIYGQSIGTVPSVDLAARYESAAVILHSPLTSGMRVAFPDTKKTYCFDAFPNIDKISKITSPVLIIHGTEDEVIDFSHGLALFERCQRPVEPLWVEGAGHNDVELYGQYLERLKQFVSQELVNL [ABHD17B] | 0.0257 | 54.9 °C | 54.3 °C | -0.163 | -2.83 | -2.95
7 | MNPDLRRERDSASFNPELLTHILDGSPEKTRRRREIENMILNDPDFQHEDLNFLTRSQRYEVAVRKSAIMVKKMREFGIADPDEIMWFKKLHLVNFVEPVGLNYSMFIPTLLNQGTTAQKEKWLLSSKGLQIIGTYAQTEMGHGTHLRGLETTATYDPETQEFILNSPTVTSIKWWPGGLGKTSNHAIVLAQLITKGKCYGLHAFIVPIREIGTHKPLPGITVGDIGPKFGYDEIDNGYLKMDNHRIPRENMLMKYAQVKPDGTYVKPLSNKLTYGTMVFVRSFLVGEAARALSKACTIAIRYSAVRHQSEIKPGEPEPQILDFQTQQYKLFPLLATAYAFQFVGAYMKETYHRINEGIGQGDLSELPELHALTAGLKAFTSWTANTGIEACRMACGGHGYSHCSGLPNIYVNFTPSCTFEGENTVMMLQTARFLMKSYDQVHSGKLVCGMVSYLNDLPSQRIQPQQVAVWPTMVDINSPESLTEAYKLRAARLVEIAAKNLQKEVIHRKSKEVAWNLTSVDLVRASEAHCHYVVVKLFSEKLLKIQDKAIQAVLRSLCLLYSLYGISQNAGDFLQGSIMTEPQITQVNQRVKELLTLIRSDAVALVDAFDFQDVTLGSVLGRYDGNVYENLFEWAKNSPLNKAEVHESYKHLKSLQSKL [ACOX1] | 0.331 | 55.9 °C | 58.3 °C | -0.212 | -1.6 | -3.2
8 | MNPESSIFIEDYLKYFQDQVSRENLLQLLTDDEAWNGFVAAAELPRDEADELRKALNKLASHMVMKDKNRHDKDQQHRQWFLKEFPRLKRELEDHIRKLRALAEEVEQVHRGTTIANVVSNSVGTTSGILTLLGLGLAPFTEGISFVLLDTGMGLGAAAAVAGITCSVVELVNKLRARAQARNLDQSGTNVAKVMKEFVGGNTPNVLTLVDNWYQVTQGIGRNIRAIRRARANPQLGAYAPPPHVIGRISAEGGEQVERVVEGPAQAMSRGTMIVGAATGGILLLLDVVSLAYESKHLLEGAKSESAEELKKRAQELEGKLNFLTKIHEMLQPGQDQ [APOL2] | 0.309 | 50 °C | 50.8 °C | 0.0238 | 4.12 | 3.26
9 | MNRGFSRKSHTFLPKIFFRKMSSSGAKDKPELQFPFLQDEDTVATLLECKTLFILRGLPGSGKSTLARVIVDKYRDGTKMVSADAYKITPGARGAFSEEYKRLDEDLAAYCRRRDIRILVLDDTNHERERLEQLFEMADQYQYQVVLVEPKTAWRLDCAQLKEKNQWQLSADDLKKLKPGLEKDFLPLYFGWFLTKKSSETLRKAGQVFLEELGNHKAFKKELRQFVPGDEPREKMDLVTYFGKRPPGVLHCTTKFCDYGKAPGAEEYAQQDVLKKSYSKAFTLTISALFVTPKTTGARVELSEQQLQLWPSDVDKLSPTDNLPRGSRAHITLGCAADVEAVQTGLDLLEILRQEKGGSRGEEVGELSRGKLYSLGNGRWMLTLAKNMEVRAIFTGYYGKGKPVPTQGSRKGGALQSCTII [CNP] | 0.107 | 50.6 °C | 50.3 °C | -0.00285 | 1.08 | 0.579
